Results published in the supplement of paper PMC5998384.

Assays:
HeLa Kyoto [1] = experiment: solubility in G1/S (NP-40 vs SDS abundance) (log2 ratio); higher = more soluble; conditions: cell cycle stage: G1/S
HeLa Kyoto [2] = experiment: melting temperature (median over replicates), in situ; higher = more thermally stable
HeLa Kyoto [3] = experiment: solubility change mitosis vs G1/S (difference of NP-40 vs SDS log2 ratios) (log2 ratio difference); higher = more soluble in mitosis
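Throughout, for melting temperature (median over replicates), in situ: HeLa Kyoto cells synchronized by double thymidine or nocodazole block, proteins quantified by TMT10plex mass spectrometry, three independent biological replicates.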
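Throughout, for solubility change mitosis vs G1/S (difference of NP-40 vs SDS log2 ratios): synchronized HeLa Kyoto cells (double thymidine block for G1/S, nocodazole release for mitosis), protein amounts in NP-40 versus SDS lysates quantified by mass spectrometry, three biological replicates.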
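Throughout, for solubility in G1/S (NP-40 vs SDS abundance): HeLa Kyoto cells arrested at G1/S by double thymidine block, proteins quantified by TMT10plex mass spectrometry in mild NP-40 versus SDS extracts, three biological replicates.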

| Sequence | solubility in G1/S (log2) (HeLa Kyoto [1]) | melting temperature (HeLa Kyoto [2]; cell cycle stage: G1/S) | melting temperature (HeLa Kyoto [2]; cell cycle stage: mitosis) | solubility change mitosis (log2) (HeLa Kyoto [3]) |
| --- | --- | --- | --- | --- |
| MLFKLLQRQTYTCLSHRYGLYVCFLGVVVTIVSAFQFGEVVLEWSRDQYHVLFDSYRDNIAGKSFQNRLCLPMPIDVVYTWVNGTDLELLKELQQVREQMEEEQKAMREILGKNTTEPTKKSEKQLECLLTHCIKVPMLVLDPALPANITLKDLPSLYPSFHSASDIFNVAKPKNPSTNVSVVVFDSTKDVEDAHSGLLKGNSRQTVWRGYLTTDKEVPGLVLMQDLAFLSGFPPTFKETNQLKTKLPENLSSKVKLLQLYSEASVALLKLNNPKDFQELNKQTKKNMTIDGKELTISPAYLLWDLSAISQSKQDEDISASRFEDNEELRYSLRSIERHAPWVRNIFIVTNGQIPSWLNLDNPRVTIVTHQDVFRNLSHLPTFSSPAIESHIHRIEGLSQKFIYLNDDVMFGKDVWPDDFYSHSKGQKVYLTWPVPNCAEGCPGSWIKDGYCDKACNNSACDWDGGDCSGNSGGSRYIAGGGGTGSIGVGQPWQFGGGINSVSYCNQGCANSWLADKFCDQACNVLSCGFDAGDCGQDHFHELYKVILLPNQTHYIIPKGECLPYFSFAEVAKRGVEGAYSDNPIIRHASIANKWKTIHLIMHSGMNATTIHFNLTFQNTNDEEFKMQITVEVDTREGPKLNSTAQKGYENLVSPITLLPEAEILFEDIPKEKRFPKFKRHDVNSTRRAQEEVKIPLVNISLLPKDAQLSLNTLDLQLEHGDITLKGYNLSKSALLRSFLMNSQHAKIKNQAIITDETNDSLVAPQEKQVHKSILPNSLGVSERLQRLTFPAVSVKVNGHDQGQNPPLDLETTARFRVETHTQKTIGGNVTKEKPPSLIVPLESQMTKEKKITGKEKENSRMEENAENHIGVTEVLLGRKLQHYTDSYLGFLPWEKKKYFQDLLDEEESLKTQLAYFTDSKNTGRQLKDTFADSLRYVNKILNSKFGFTSRKVPAHMPHMIDRIVMQELQDMFPEEFDKTSFHKVRHSEDMQFAFSYFYYLMSAVQPLNISQVFDEVDTDQSGVLSDREIRTLATRIHELPLSLQDLTGLEHMLINCSKMLPADITQLNNIPPTQESYYDPNLPPVTKSLVTNCKPVTDKIHKAYKDKNKYRFEIMGEEEIAFKMIRTNVSHVVGQLDDIRKNPRKFVCLNDNIDHNHKDAQTVKAVLRDFYESMFPIPSQFELPREYRNRFLHMHELQEWRAYRDKLKFWTHCVLATLIMFTIFSFFAEQLIALKRKIFPRRRIHKEASPNRIRV [GNPTAB] | 0.263 | 53.9 °C | 54.1 °C | -0.00222 |
| MLGLCGQRLPAAWVLLLLPFLPLLLLAAPAPHRASYKPVIVVHGLFDSSYSFRHLLEYINETHPGTVVTVLDLFDGRESLRPLWEQVQGFREAVVPIMAKAPQGVHLICYSQGGLVCRALLSVMDDHNVDSFISLSSPQMGQYGDTDYLKWLFPTSMRSNLYRICYSPWGQEFSICNYWHDPHHDDLYLNASSFLALINGERDHPNATVWRKNFLRVGHLVLIGGPDDGVITPWQSSFFGFYDANETVLEMEEQLVYLRDSFGLKTLLARGAIVRCPMAGISHTAWHSNRTLYETCIEPWLS [PPT2] | 0.733 | 56.4 °C | 55.9 °C | -0.131 |
| MMGCFALQTVDTELTADSVEWCPLQGCRHLLACGTYQLRRPEDRPAGPQNKGGMEVKEPQVRLGRLFLYSFNDNNSIHPLVEVQRKDTSAILDMKWCHIPVAGHALLGLADASGSIQLLRLVESEKSHVLEPLSSLALEEQCLALSLDWSTGKTGRAGDQPLKIISSDSTGQLHLLMVNETRPRLQKVASWQAHQFEAWIAAFNYWHPEIVYSGGDDGLLRGWDTRVPGKFLFTSKRHTMGVCSIQSSPHREHILATGSYDEHILLWDTRNMKQPLADTPVQGGVWRIKWHPFHHHLLLAACMHSGFKILNCQKAMEERQEATVLTSHTLPDSLVYGADWSWLLFRSLQRAPSWSFPSNLGTKTADLKGASELPTPCHECREDNDGEGHARPQSGMKPLTEGMRKNGTWLQATAATTRDCGVNPEEADSAFSLLATCSFYDHALHLWEWEGN [DPH7] | -0.0249 |  | 57.1 °C | -0.0679 |
| MMWQKYAGSRRSMPLGARILFHGVFYAGGFAIVYYLIQKFHSRALYYKLAVEQLQSHPEAQEALGPPLNIHYLKLIDRENFVDIVDAKLKIPVSGSKSEGLLYVHSSRGGPFQRWHLDEVFLELKDGQQIPVFKLSGENGDEVKKE [COA1] | 0.0268 | 54.7 °C | 55.7 °C | 0.0489 |
| MNRPAPVEISYENMRFLITHNPTNATLNKFTEELKKYGVTTLVRVCDATYDKAPVEKEGIHVLDWPFDDGAPPPNQIVDDWLNLLKTKFREEPGCCVAVHCVAGLGRAPVLVALALIECGMKYEDAVQFIRQKRRGAFNSKQLLYLEKYRPKMRLRFRDTNGHCCVQ [PTP4A2] | -0.226 | 53.7 °C | 54.1 °C | -0.087 |
| MPAFLGLKCLGKLCSSEKSKVTSSERTSARGSNRKRLIVEDRRVSGTSFTAHRRATITHLLYLCPKDYCPRGRVCNSVDPFVAHPQDPHHPSEKPVIHCHKCGEPCKGEVLRVQTKHFHIKCFTCKVCGCDLAQGGFFIKNGEYLCTLDYQRMYGTRCHGCGEFVEGEVVTALGKTYHPNCFACTICKRPFPPGDRVTFNGRDCLCQLCAQPMSSSPKETTFSSNCAGCGRDIKNGQALLALDKQWHLGCFKCKSCGKVLTGEYISKDGAPYCEKDYQGLFGVKCEACHQFITGKVLEAGDKHYHPSCARCSRCNQMFTEGEEMYLQGSTVWHPDCKQSTKTEEKLRPTRTSSESIYSRPGSSIPGSPGHTIYAKVDNEILDYKDLAAIPKVKAIYDIERPDLITYEPFYTSGYDDKQERQSLGESPRTLSPTPSAEGYQDVRDRMIHRSTSQGSINSPVYSRHSYTPTTSRSPQHFHRPGNEPSSGRNSPLPYRPDSRPLTPTYAQAPKHFHVPDQGINIYRKPPIYKQHAALAAQSKSSEDIIKFSKFPAAQAPDPSETPKIETDHWPGPPSFAVVGPDMKRRSSGREEDDEELLRRRQLQEEQLMKLNSGLGQLILKEEMEKESRERSSLLASRYDSPINSASHIPSSKTASLPGYGRNGLHRPVSTDFAQYNSYGDVSGGVRDYQTLPDGHMPAMRMDRGVSMPNMLEPKIFPYEMLMVTNRGRNKILREVDRTRLERHLAPEVFREIFGMSIQEFDRLPLWRRNDMKKKAKLF [ABLIM1] | -0.8 | 46.2 °C | 51.7 °C | 0.599 |
| MPIVDKLKEALKPGRKDSADDGELGKLLASSAKKVLLQKIEFEPASKSFSYQLEALKSKYVLLNPKTEGASRHKSGDDPPARRQGSEHTYESCGDGVPAPQKVLFPTERLSLRWERVFRVGAGLHNLGNTCFLNATIQCLTYTPPLANYLLSKEHARSCHQGSFCMLCVMQNHIVQAFANSGNAIKPVSFIRDLKKIARHFRFGNQEDAHEFLRYTIDAMQKACLNGCAKLDRQTQATTLVHQIFGGYLRSRVKCSVCKSVSDTYDPYLDVALEIRQAANIVRALELFVKADVLSGENAYMCAKCKKKVPASKRFTIHRTSNVLTLSLKRFANFSGGKITKDVGYPEFLNIRPYMSQNNGDPVMYGLYAVLVHSGYSCHAGHYYCYVKASNGQWYQMNDSLVHSSNVKVVLNQQAYVLFYLRIPGSKKSPEGLISRTGSSSLPGRPSVIPDHSKKNIGNGIISSPLTGKRQDSGTMKKPHTTEEIGVPISRNGSTLGLKSQNGCIPPKLPSGSPSPKLSQTPTHMPTILDDPGKKVKKPAPPQHFSPRTAQGLPGTSNSNSSRSGSQRQGSWDSRDVVLSTSPKLLATATANGHGLKGNDESAGLDRRGSSSSSPEHSASSDSTKAPQTPRSGAAHLCDSQETNCSTAGHSKTPPSGADSKTVKLKSPVLSNTTTEPASTMSPPPAKKLALSAKKASTLWRATGNDLRPPPPSPSSDLTHPMKTSHPVVASTWPVHRARAVSPAPQSSSRLQPPFSPHPTLLSSTPKPPGTSEPRSCSSISTALPQVNEDLVSLPHQLPEASEPPQSPSEKRKKTFVGEPQRLGSETRLPQHIREATAAPHGKRKRKKKKRPEDTAASALQEGQTQRQPGSPMYRREGQAQLPAVRRQEDGTQPQVNGQQVGCVTDGHHASSRKRRRKGAEGLGEEGGLHQDPLRHSCSPMGDGDPEAMEESPRKKKKKKRKQETQRAVEEDGHLKCPRSAKPQDAVVPESSSCAPSANGWCPGDRMGLSQAPPVSWNGERESDVVQELLKYSSDKAYGRKVLTWDGKMSAVSQDAIEDSRQARTETVVDDWDEEFDRGKEKKIKKFKREKRRNFNAFQKLQTRRNFWSVTHPAKAASLSYRR [USP36] | -1.41 | 52.3 °C | 52.2 °C | 0.946 |
| MPKTMHFLFRFIVFFYLWGLFTAQRQKKEESTEEVKIEVLHRPENCSKTSKKGDLLNAHYDGYLAKDGSKFYCSRTQNEGHPKWFVLGVGQVIKGLDIAMTDMCPGEKRKVVIPPSFAYGKEGYAEGKIPPDATLIFEIELYAVTKGPRSIETFKQIDMDNDRQLSKAEINLYLQREFEKDEKPRDKSYQDAVLEDIFKKNDHDGDGFISPKEYNVYQHDEL [FKBP7] | 0.654 | 55 °C | 55.8 °C | 0.0889 |
| MPVTVTRTTITTTTTSSSGLGSPMIVGSPRALTQPLGLLRLLQLVSTCVAFSLVASVGAWTGSMGNWSMFTWCFCFSVTLIILIVELCGLQARFPLSWRNFPITFACYAALFCLSASIIYPTTYVQFLSHGRSRDHAIAATFFSCIACVAYATEVAWTRARPGEITGYMATVPGLLKVLETFVACIIFAFISDPNLYQHQPALEWCVAVYAICFILAAIAILLNLGECTNVLPIPFPSFLSGLALLSVLLYATALVLWPLYQFDEKYGGQPRRSRDVSCSRSHAYYVCAWDRRLAVAILTAINLLAYVADLVHSAHLVFVKV [MYADM] | -0.352 | 52.9 °C | 53 °C | -0.0179 |
| MQAALEVTARYCGRELEQYGQCVAAKPESWQRDCHYLKMSIAQCTSSHPIIRQIRQACAQPFEAFEECLRQNEAAVGNCAEHMRRFLQCAEQVQPPRSPATVEAQPLPAS [CHCHD5] | -0.11 | 53.5 °C | 50.5 °C | 0.0671 |
| MQSPAVLVTSRRLQNAHTGLDLTVPQHQEVRGKMMSGHVEYQILVVTRLAAFKSAKHRPEDVVQFLVSKKYSEIEEFYQKLSSRYAAASLPPLPRKVLFVGESDIRERRAVFNEILRCVSKDAELAGSPELLEFLGTRSPGAAGLTSRDSSVLDGTDSQTGNDEEAFDFFEEQDQVAEEGPPVQSLKGEDAEESLEEEEALDPLGIMRSKKPKKHPKVAVKAKPSPRLTIFDEEVDPDEGLFGPGRKLSPQDPSEDVSSVDPLKLFDDPDLGGAIPLGDSLLLPAACESGGPTPSLSHRDASKELFRVEEDLDQILNLGAEPKPKPQLKPKPPVAAKPVIPRKPAVPPKAGPAEAVAGQQKPQEQIQAMDEMDILQYIQDHDTPAQAAPSLF [HS1BP3] | 0.292 | 49.7 °C | 50.5 °C | 0.119 |
| MRASLLLSVLRPAGPVAVGISLGFTLSLLSVTWVEEPCGPGPPQPGDSELPPRGNTNAARRPNSVQPGAEREKPGAGEGAGENWEPRVLPYHPAQPGQAAKKAVRTRYISTELGIRQRLLVAVLTSQTTLPTLGVAVNRTLGHRLERVVFLTGARGRRAPPGMAVVTLGEERPIGHLHLALRHLLEQHGDDFDWFFLVPDTTYTEAHGLARLTGHLSLASAAHLYLGRPQDFIGGEPTPGRYCHGGFGVLLSRMLLQQLRPHLEGCRNDIVSARPDEWLGRCILDATGVGCTGDHEGVHYSHLELSPGEPVQEGDPHFRSALTAHPVRDPVHMYQLHKAFARAELERTYQEIQELQWEIQNTSHLAVDGDQAAAWPVGIPAPSRPASRFEVLRWDYFTEQHAFSCADGSPRCPLRGADRADVADVLGTALEELNRRYHPALRLQKQQLVNGYRRFDPARGMEYTLDLQLEALTPQGGRRPLTRRVQLLRPLSRVEILPVPYVTEASRLTVLLPLAAAERDLAPGFLEAFATAALEPGDAAAALTLLLLYEPRQAQRVAHADVFAPVKAHVAELERRFPGARVPWLSVQTAAPSPLRLMDLLSKKHPLDTLFLLAGPDTVLTPDFLNRCRMHAISGWQAFFPMHFQAFHPAVAPPQGPGPPELGRDTGRFDRQAASEACFYNSDYVAARGRLAAASEQEEELLESLDVYELFLHFSSLHVLRAVEPALLQRYRAQTCSARLSEDLYHRCLQSVLEGLGSRTQLAMLLFEQEQGNST [CHPF] | -0.013 | 53.4 °C | 52 °C | 0.15 |
